Results as given in article PMC10303687.

The substances below were run against MDM2_(D. rerio) SWIB domain (zebra fish (Danio rerio)) (assay: stopped-flow fluorescence kinetics; 10°C, 20 mM sodium phosphate pH 7.4, 150 mM NaCl, 1 mM TCEP; Trp23 emission; MDM2 constant at 0.5–2 μM, p53TAD varied 1–10 μM for k on; k off from displacement of the 1 μM:1 μM complex by 10–20 μM dansylated human p53TAD peptide; K D = k off/k on).

Kd	koff	kon	Substance
1900 nM	31 s⁻¹	1.59e+07 M⁻¹ s⁻¹	p53TAD_(D. rerio)^14–27 (peptide)
340 nM	5.2 s⁻¹	1.55e+07 M⁻¹ s⁻¹	p53TAD_(D. rerio)^N26L (peptide)
120 nM	3.7 s⁻¹	3.2e+07 M⁻¹ s⁻¹	p73TAD_(D. rerio) (peptide)
